Measurements from patent US20080261267A1, “Cellulases from Rumen” (priority 2004, published 2008).

B1: pBKRR.22: rumen endo-beta-1,4-glucanase, sequences FIG. 11/19 (protein)
chain: MLLASFSLFSCGGSDGDDSTPTPSVSLQLVSQSIAEGAQVDAASTTVLTLNYNNPVRVTGNGVTLNGIAVKAKVSGNTSVEIPLTLVEGTVYTLKVAWGAIVAAADGKVVAPEFTLNFTTKGNQQPPIDENSPIAKKMGWGWNLGNHFDTSSGADGVRPQWGYWDNAKPTQVLYNNLRNAGTSTVRIGVTWGNYQNTSNWDIDANYIAEVRQNVEWAEAAGLNVILNMHHDEYWLDIKGAANNSSTNTNIKNRIEKTWKQIAEAFKDKGEFLIFESFNEIQDGGWGWGANRTDGGKQYKTLNEWNQLVVNTIRATGGNNATRWIGIPSYAANPSLALETGFVLPTDAANRLMVSVHFYDPSNFTLSPYVSDDSSEYKSGGYSEWGHTAAKGKADTGSNEDHVVAIFKKLHDKFVAKNIPVYIGEYGCVMHKNTRSNYFRNYYLEYVCRAAHEYGMPLCIWDNNQTGGGNEHHGYFNHTDGQYLNAMESLVKTMIKAATSDDASYTLESVYNKAPK
modifications: Description of sequence sequence derived from genomic DNA library from rumen ecosystem, particularly amino acid sequence of clones pBKRR 22, 6, 8 and 23;(see Figure 19)
B2: pBKRR.14: rumen endoglucanase, sequences FIG. 16/24; also capable of hydrolyzing xylan (protein)
chain: MINVLQHHPEVELSVDKTSVSFNRSGGEETFTVTSSTQPHVSADVSWVVVETGKIDKDHHTEVRVLAGANRKEASAGTLTVSCSDKKVSVSVKQEAFVAPSVASTTAVTPQMVFDAMGPGWNMGNHMDAISNGVSGETVWGNPKCTQATMDGVKAAGYKAVRICTTWEGHIGAAPAYALEQKWLDRVAEIVGYAEKAGLVAIVNTHHDESYWQDISKCYNNAANHEKVKDEVFSVWTQIAEKFKDKGEWLVFESFNEIQDGGWGWSDAFRKNPDAQYKVLNEWNQTFVDAVRSTGGQNATRWLGIPGYACNPGFTIAGLVLPKDYTTANRLMVAVHDYDPYDYTLKDPLIRQWGHTADADKRPSGDNEKAVVDVFNNLKAAYLDKGIPVYLGEMGCSRHTAADFPYQKYYMEYFCKAAADRLLPMYLWDNGAKGVGSERHAYIDHGTGQFVDEDARTLVGLMVKAVTTKDASYTLESVYNSAP
modifications: Description of sequence sequence derived from genomic DNA library from rumen ecosystem, particularly amino acid sequence of clones pBKRR 14 and 20-1; RR14=RR20-1;(see Figure 24)
notes: also capable of hydrolyzing xylan

Key:
[1] = TLC analysis of hydrolysis products; type: biochemical; details: pH 5.6, 50° C.
Text: FIG. 7 depicts the result of thin layer chromatography TLC analysis of products of CMC hydrolyzed by endoglucanases derived from a rumial genomic DNA library. The methods used for cellulase and substrate preparation, hydrolysis, TLC, and visualization are described in Example 5. The hydrolysis products glucose, cellobiose, cellotriose are shown an the right side. […] Different pattern was found when using short-chain beta-1,4-glucans.
The products formed by hydrolysis of cellulose-based substrates (cellobiose, cellotetraose, cellopentaose, cellulose and carboxymethyl cellulose) were analysed by thin-layer chromatography (TLC). Solutions containing 20 μg of E. coli cell lysate proteins and 0.2% (wt/vol) substrate in 50 mM acetate buffer (pH 5.6) were incubated at 50° C. until maximum conversion was achieved. The reactions were terminated by heating the preparation for 5 min at 95° C. and hydrolysis products were separated by TLC on silica gel plates (Merck, Darmstadt, Germany) by using a mixture chloroform, glacial acetic acid, and water (6:14:1) as the solvent. […] Sugars were visualized by heating 105° C. for 15 min the plates which were previously sprayed with a reagent containing amine (2 ml), diphenylamine (2 g), acetone (100 ml) and 85% H3PO4 (15 ml).

[2] = Specific activity of purified endoglucanases; type: biochemical; details: purified to homogeneity; pH 5.6 and 50° C.; CMC as substrate
Method: FIG. 2 represents Table 2 which contains the data obtained by purification of endoglucanases of seven clones (pBKRR.1, 9, 11, 13, 14, 16 and 22) with respect to the specific activity. […] They were purified to homogeneity and their specific activity was estimated at pH 5.6 and 50° C., using CMC as substrate.
The endoglucanases were recovered from 1-liter shaked flask fermentations, in Luria-Bertany broth plus 50 μg of Kanamycin per ml. One gram of fermentation broth was mixed with 10 ml of standard buffer in a 50-ml Falcon tube. The solution was vortexed and then incubated with DNase I grade II, for 30-45 min, and then sonicated for 4 min total time. A sample of the soluble fraction was separated from insoluble debris by centrifugation (10,000×g, 30 min, 4° C.) and proteins were precipitated by addition of 80% chilled acetone (−20° C.). Proteins were resuspended in standard buffer and stored at −20° C. at a concentration of 5 mg/ml until use. The amount of protein expression was examined using SDS-PAGE with 10-12% acrylamide. […] The gel region containing the active cellulase, detected in a parallel track by activity staining (using Ostazin brillian-blue carboxymethyl cellulose) was excised, suspended in two volumes of standard fuffer and homogenized in a glass tissue homogenizer. […]
The standard cellulase activity was determined in a continuous spectrophotometric assay by measuring the release of reducing sugars from the 4% (wt/vol carboxymethyl cellulose (CMC) in 0.5-ml reaction mixtures containing 50 mM sodium acetate buffer, pH 5.6, at 40° C., using the dinitrosalycilic acid (DNS) method (Bernfeld, P. (1955) Amilases and b. In: Colowick S P, Kaplan N O (eds). Methods in Enzymology, Academic Press, New York pp. 133-155). The reaction was performed in 0.5 ml scale containing 20 mg substrate and 5 mg lyophilised cells or 0.1 mg purified enzyme. Reactions were allow to proceed for a time period of 5-30 min after which the samples were centrifuge (10,000×g, 3 min). […] Finally, each well was diluted with 150 μl water and the absorbance at 550 nm was measured. […]

Row | Molecule | main hydrolysis products of CMC [1] | specific activity [2]
1 | B1 | cellobiose and cellotriose | 68.30 µmol/min/mg
2 | B2 | cellobiose and cellotriose | 34.60 µmol/min/mg
